Source: article PMC4786772, “Manipulation of prenylation reactions by structure-based engineering of bacterial indolactam prenyltransferases” (Nature Communications, 2016)

Experiments:
Assay in all cases: purified protein
Conditions in all cases: 150 μM (−)-indolactam V, 42 °C, 5 min, Tris-HCl pH 7.0, 150 mM NaCl
[1] = test system: CC(C)=CCOP(=O)(O)OP(=O)(O)O
[2] = test system: CC(C)=CCC/C(C)=C/COP(=O)(O)OP(=O)(O)O
[3] = test system: CC(C)=CCC/C(C)=C/CC/C(C)=C/CO[P@@](=O)(O)OP(=O)(O)O

Row | Substance | Km [1] [µM] | kcat [1] [s⁻¹] | kcat/Km [1] [M⁻¹ s⁻¹] | Km [2] [µM] | kcat [2] [s⁻¹] | kcat/Km [2] [M⁻¹ s⁻¹] | Km [3] [µM] | kcat [3] [s⁻¹] | kcat/Km [3] [M⁻¹ s⁻¹]
1 | TleC (Streptomyces blastmyceticus; A173M/F170W/W97Y) | 46.6 ± 8.2 | 0.0433 ± 0.00333 | 900 | – | – | – | – | – | –
2 | TleC (Streptomyces blastmyceticus; A173M) | 24.6 ± 3.0 | 0.065 ± 0.00167 | 2600 | – | – | – | – | – | –
3 | TleC (Streptomyces blastmyceticus) | 21.7 ± 4.3 | 0.025 ± 0.00167 | 1100 | 9.5 ± 3.3 | 0.25 ± 0.025 | 26400 | – | – | –
4 | MpnD (Marinactinospora thermotolerans; M159A) | 24.2 ± 4.2 | 0.505 ± 0.0333 | 20900 | 9.1 ± 1.2 | 0.0717 ± 0.00333 | 7900 | 48.7 ± 14.6 | 0.167 ± 0.015 | 3400
5 | TleC (Streptomyces blastmyceticus; W97Y) | 11.3 ± 1.6 | 0.402 ± 0.0133 | 35500 | 7.7 ± 1.0 | 0.168 ± 0.00667 | 21800 | – | – | –
6 | TleC (Streptomyces blastmyceticus; A173M/W97Y) | 41.2 ± 5.6 | 0.0333 ± 0.00167 | 800 | – | – | – | – | – | –
7 | MpnD (Marinactinospora thermotolerans) | 4.8 ± 1.0 | 0.882 ± 0.0433 | 183000 | 26.0 ± 4.9 | 0.0433 ± 0.00333 | 1700 | 95.5 ± 17.1 | 0.0867 ± 0.00833 | 900
8 | MpnD (Marinactinospora thermotolerans; Y80W) | 15.3 ± 2.5 | 0.118 ± 0.005 | 7700 | 9.7 ± 1.1 | 0.09 ± 0.00167 | 9300 | – | – | –
